This experiment deals with SLC41A1 (human). The experiment is described as follows: split-ubiquitin method screen (DUALmembrane SU-YTH) for SLC41A1 complex-forming partners.
SLC41A1 (human), sequence (chain, as listed by the source limits assumed): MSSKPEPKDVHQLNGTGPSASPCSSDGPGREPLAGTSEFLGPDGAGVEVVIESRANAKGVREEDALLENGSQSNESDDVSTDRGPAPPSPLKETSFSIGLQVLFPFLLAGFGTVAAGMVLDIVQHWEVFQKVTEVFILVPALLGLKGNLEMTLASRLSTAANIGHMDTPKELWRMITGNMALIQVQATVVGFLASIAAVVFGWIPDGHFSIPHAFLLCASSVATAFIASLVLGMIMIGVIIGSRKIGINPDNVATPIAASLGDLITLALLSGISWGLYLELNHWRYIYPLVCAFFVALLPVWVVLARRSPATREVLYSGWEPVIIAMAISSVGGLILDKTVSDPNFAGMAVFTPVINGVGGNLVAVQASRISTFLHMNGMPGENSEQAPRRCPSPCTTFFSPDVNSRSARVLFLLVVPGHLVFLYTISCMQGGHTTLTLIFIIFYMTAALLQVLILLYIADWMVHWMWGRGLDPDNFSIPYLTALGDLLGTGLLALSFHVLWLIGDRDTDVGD

B1: Protein disulfide-isomerase A6 (enzyme)
chain: LYSSSDDVIELTPSNFNREVIQSDSLWLVEFYAPWCGHCQRLTPEWKKAATALKDVVKVGAVDADKHHSLGGQYGVQGFPTIKIFGSNKNRPEDYQGGRTGEAIVDAALSALRQLVKDRLGGRSGGYSSGKQGRSDSSSKKDVIELTDDSFDKNVLDSEDVWMVEFYAPWCGHCKNLEPEWAAAASEVKEQTKGKVKLAAVDATVNQVLASRYGIRGFPTIKIFQKGESPVDYDGGRTRSDIVSRALDLFSDNAPPPELLEIINEDIAKRTCEEHQLCVVAVLPHILDTGAAGRNSYLEVLLKLADKYKKKMWGWLWTEAGAQSELETALGIGGFGYPAMAAINARKMKFALLKGSFSEQGINEFLRELSFGRGSTAPVGGGAFPTIVEREPWDGRDGELPVEDDIDLSDVELDDLGKDEL
For the molecule B1, the occurrence came out at 11 clones.

B2: Uncharacterized protein C10orf35 (other)
chain: MVRILANGEIVQDDDPRVRTTTQPPRGSIPRQSFFNRGHGAPPGGPGPRQQQAGARLGAAQSPFNDLNRQLVNMGFPQWHLGNHAVEPVTSILLLFLLMMLGVRGLLLVGLVYLVSHLSQR
Molecule B2 came in with an occurrence of 2 clones.

B3: Signal peptidase complex subunit 1 (other)
chain: MARGGDTGCTGPSETSASGAVAIAFPGLEGPPADAQYQTLALTVPKSWSPSPRSLPPALSCPPPQPAMLEHLSSLPTQMDYKGQKLAEQMFQGIILFSAIVGFIYGYVAEQFGWTVYIVMAGFAFSCLLTLPPWPIYRRHPLKWLPVQESSTDDKKPGERKIKRHAKNN
As to B3, the occurrence is 2 clones.

B4: ATP synthase subunit a (Tachyglossus aculeatus aculeatus) (other)
chain: MNENLFASFITPTILGISILPLIMIFPCLLFSAPNRWMPNRLVALQLWLVRMVTKQMMSMHNKQGRMWTLMLITLIMFIASTNLLGLLPYTFTPTTQLSMNMGMAVPLWLGTVLMGFRNKPKSSLAHFLPQGTPTPLIPMLIIIETISLFIQPVALAVRLTANITAGHLLIHLIGSATLALSSISLTVSTITFTILFLLTILEIAVALIQAYVFTLLVSLYLHDNT
In the case of B4, the occurrence worked out at 1 clones.

B5: ATP synthase subunit a (Pan troglodytes) (other)
chain: MNENLFASFAAPTILGLPAAVLIILFPPLLVPTSKHLINNRLITTQQWLIQLTSKQMMTMHSTKGRTWSLMLVSLIIFITTTNLLGLLPHSFTPTTQLSMNLAMAIPLWAGAVVMGFRFKTKNALAHFLPQGTPTPLIPMLVIIETISLLIQPMALAVRLTANITAGHLLMHLIGSATLALSTINLPYALIIFTILILLTILEIAVALIQAYVFTLLVSLYLHDNT
The molecule B5 returned an occurrence of 1 clones.

B6: 3-beta-hydroxysteroid-Delta(8), Delta(7)-isomerase (Rattus norvegicus) (enzyme)
chain: MTTNMLPLHPYWPRHLRLDNFVPNDLPTWHILVGLFSFSGVLIVITWLLSSRVSVVPLGTGRRLALCWFAVCTFIHLVIEGWFSFYHEILLEDQAFLSQLWKEYSKGDSRYILSDGFIVCMESVTACLWGPLSLWVVIAFLRHQPFRFVLQLVVSVGQIYGDVLYFLTELRDGFQHGELGHPLYFWFYFVIMNAIWLVIPGILVFDAIKHLTNAQSMLDNKVMKIKSKHN
In the case of B6, the occurrence came to 1 clones.

B7: Transmembrane protein 147 (other)
chain: MTLFHFGNCFALAYFPYFITYKCSGLSEYNAFWKCVQAGVTYLFVQLCKMLFLATFFPTWEGGIYDFIGEFMKASVDVADLIGLNLVMSRNAGKGEYKIMVAALGWATAELIMSRCIPLWVGARGIEFDWKYIQMSIDSNISLVHYIVASAQVWMITRYDLYHTFRPAVLLLMFLSVYKAFVMETFVHLCSLGSWAALLARAVVTGLLALSTLALYVAVVNVHS
As to B7, the occurrence worked out at 2 clones.

B8: Uncharacterized protein C4orf3 (other)
chain: MEVDAPGVDGRDGLRERRGFSEGGRQNFDVRPQSGANGLPKHSYWLDLWLFILFDVVVFLFVYFLP
Molecule B8 came in with an occurrence of 2 clones.

B9: Probable ergosterol biosynthetic protein 28 (other)
chain: MSRFLNVLRSWLVMVSIIAMGNTLQSFRDHTFLYEKLYTGKPNLVNGLQARTFGIWTLLSSVIRCLCAIDIHNKTLYHITLWTFLLALGHFLSELFVYGTAAPTIGVLAPLMVASFSILGMLVGLRYLEVEPVSRQKKRN
In turn, B9 returned an occurrence of 2 clones.

B10: UPF0480 protein C15orf24 homolog (other)
chain: SEVPGAAAEGSGGSGVGIGDRFKIEGRAVVPGVKPQDWISAARVLVDGEEHVGFLKTDGSFVVHDIPSGSYVVEVVSPAYRFDPVRVDITSKGKMRARYVNHIKTSEVVRLPYPLQMKSSGPPSYFIKRESWGWTDFLMNPMVMMMVLPLLIFVLLPKVVNTSDPDMRREMEQSMNMLNSNHELPDVSEFMTRLFSSKSSGKSSSGSSKTGKSGAGKRR
In turn, B10 returned an occurrence of 1 clones.

B11: UPF0480 protein C15orf24 (other)
chain: SEVPGAAAEGSGGSGVGIGDRFKIEGRAVVPGVKPQDWISAARVLVDGEEHVGFLKTDGSFVVHDIPSGSYVVEVVSPAYRFDPVRVDITSKGKMRARYVNYIKTSEVVRLPYPLQMKSSGPPSYFIKRESWGWTDFLMNPMVMMMVLPLLIFVLLPKVVNTSDPDMRREMEQSMNMLNSNHELPDVSEFMTRLFSSKSSGKSSSGSSKTGKSGAGKRR
Consider B11, for which the occurrence came to 4 clones.

B12: ATP synthase subunit a (Homo sapiens) (other)
chain: MNENLFASFIAPTILGLPAAVLIILFPPLLIPTSKYLINNRLITTQQWLIKLTSKQMMTMHNTKGRTWSLMLVSLIIFIATTNLLGLLPHSFTPTTQLSMNLAMAIPLWAGTVIMGFRSKIKNALAHFLPQGTPTPLIPMLVIIETISLLIQPMALAVRLTANITAGHLLMHLIGSATLAMSTINLPSTLIIFTILILLTILEIAVALIQAYVFTLLVSLYLHDNT
Molecule B12 showed an occurrence of 1 clones.

B13: ATP synthase subunit a (Cricetulus griseus) (other)
chain: MNENLFSSFITPTLMGLPIIILIIMFPPVIMTSSKRLVNNRFHTFQQWLIKLITKQMMAIHSPKGRTWSLMLASLIIFIGSTNLLGLLPHTFTPTTQLSMNLGMAIPPWAGAVILGFRHKMKDSLAHFLPQGTPIPLIPMLVIIETISLFIQPMALAVRLTANITAGHLLMHLIGGATLVLTSISLPTAMITFIILIMLTILEFAVALIQAYVFTLLVSLYLHDNT
B13 showed an occurrence of 1 clones.

B14: UPF0414 transmembrane protein C20orf30 (other)
chain: MMPSRTNLATGIPSSKVKYSRLSSTDDGYIDLQFKKTPPKIPYKAIALATVLFLIGAFLIIIGSLLLSGYISKGGADRAVPVLIIGILVFLPGFYHLRIAYYASKGYRGYSYDDIPDFDD
Consider B14, for which the occurrence was found to be 3 clones.

B15: Transmembrane protein 14A (other)
chain: MDLIGFGYAALVTFGSIFGYKRRGGVPSLIAGLFVGCLAGYGAYRVSNDKRDVKVSLFTAFFLATIMGVRFKRSKKIMPAGLVAGLSLMMILRLVLLLL
In turn, B15 registered an occurrence of 2 clones.

B16: Kunitz-type protease inhibitor 2 (other)
chain: ADRERSIHDFCLVSKVVGRCRASMPRWWYNVTDGSCQLFVYGGCDGNSNNYLTKEECLKKCATVTENATGDLATSRNAADSSVPSAPRRQDSEDHSSDMFNYEEYCTANAVTGPCRASFPRWYFDVERNSCNNFIYGGCRGNKNSYRSEEACMLRCFRQQENPPLPLGSKVVVLAGLFVMVLILFLGASMVYLIRVARRNQERALRTVWSSGDDKEQLVKNTYVL
Consider B16, for which the occurrence is 2 clones.

B17: Peptidyl-prolyl cis-trans isomerase B (enzyme)
chain: not shown
Molecule B17 displayed an occurrence of 5 clones.

B18: Protein YIPF6 (other)
chain: MAEAEESPGDPGTASPRPLFAGLSDISISQDIPVEGEITIPMRSRIREFDSSTLNESVRNTIMRDLKAVGKKFMHVLYPRKSNTLLRDWDLWGPLILCVTLALMLQRDSADSEKDGGPQFAEVFVIVWFGAVTITLNSKLLGGNISFFQSLCVLGYCILPLTVAMLICRLVLLADPGPVNFMVRLFVVIVMFAWSIVASTAFLADSQPPNRRALAVYPVFLFYFVISWMILTFTPQ
B18 registered an occurrence of 2 clones.

B19: Translocon-associated protein subunit gamma (other)
chain: MAPKGSSKQQSEEDLLLQDFSRNLSAKSSALFFGNAFIVSAIPIWLYWRIWHMDLIQSAVLYSVMTLVSTYLVAFAYKNVKFVLKHKVAQKREDAVSKEVTRKLSEADNRKMSRKEKDERILWKKNEVADYEATTFSIFYNNTLFLVVVIVASFFILKNFNPTVNYILSISASSGLIALLSTGSK
The molecule B19 registered an occurrence of 4 clones.

B20: Immediate early response 3-interacting protein 1 (other)
chain: MAFTLYSLLQAALLCVNAIAVLHEERFLKNIGWGTDQGIGGFGEEPGIKSQLMNLIRSVRTVMRVPLIIVNSIAIVLLLLFG
B20 gave an occurrence of 3 clones.

B21: B-cell receptor-associated protein 31 (other)
chain: MSLQWTAVATFLYAEVFVVLLLCIPFISPKRWQKIFKSRLVELLVSYGNTFFVVLIVILVLLVIDAVREIRKYDDVTEKVNLQNNPGAMEHFHMKLFRAQRNLYIAGFSLLLSFLLRRLVTLISQQATLLASNEAFKKQAESASEAAKKYMEENDQLKKGAAVDGGKLDVGNAEVKLEEENRSLKADLQKLKDELASTKQKLEKAENQVLAMRKQSEGLTKEYDRLLEEHAKLQAAVDGPMDKKEE
Consider B21, for which the occurrence was found to be 10 clones.

(Values after US20130174289A1, “Na+/Mg2+ Exchanger” (FBN - Leibnitz-Institut fur Nutztierbiologie, published 2013).)
